The nature of this data set: yeast display, Sf9 membrane polyspecificity reagent, FACS + sequencing; frameworks hold sequencing errors. In a few lines:
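Synthetic nanobody libraries on Saccharomyces cerevisiae BJ5465 were galactose-induced for 36–48 hours, stained 1 hour at 4 °C with 10% biotinylated, detergent-solubilized Sf9 membrane reagent and enriched on streptavidin microbeads. FACS then separated cells into low and high (top ~1%) gates by anti-HA (expression) and streptavidin (reagent binding) fluorescence. Genes were colony-PCR amplified, MiSeq 2 × 250 sequenced and CDR-length filtered. A clone's polyreactivity label is that of its gate of origin.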
As for “QVQLVESGGGLVQAGGSLRLSCAASGRTFDLYAMGWYRQAPGKERELVARITNIDDSTYYADSVKGRFTISRDNAKNTVYLQMNSLKPEDTAVYYCNAVVTKYAKSRFLYYYWGQGTQVTVSS”, the “polyreactivity (PSR sort gate)” value was “high polyreactivity”.
For “QVQLVESGGGLVQAGGSLRLSCAASGRTFDPNVMGWYRQAPGKERELVAAISRGGSTYYADSVKGRFTISRDNAKNTVYLQMNSLKPEDTAVYYCAATHYGHSISYWFDYWGQGTQVTVSS”, the “polyreactivity (PSR sort gate)” value was “high polyreactivity”.
“QVQLVESGGGLVQAGGSLRLSCAASGRTFDRDAKGWYRQAPGKERELVAVIRFIGGSTYYAYSVKGRFTISRDNAKNTVFLQMNSLKQEDTAVYDCATRGPIWGQRYYKGYYWGQGTQVTVSS”: the “polyreactivity (PSR sort gate)” value was “low polyreactivity”.
“QVQLVESGGGLVQAGGSLRLSCAASGRTFDRNTMGWYRQAPGKQRELVAAISSSGGSTYYADSVKGRFTISRDNAKNTVYLQMNSLKPEDTAVYYCAARQSPNRWMGYWGQGTQVTVSS”: the “polyreactivity (PSR sort gate)” value was “high polyreactivity”.
Take “QVQLVESGGGLVQAGGSLRLSCAASGRTFDTNAMGWYRQAPGKERELVAGITIGGSTNYADSVKGRFTISRDNAKNTVYLQMNILKPEDTAVYYCAADYGSVRGYAADYYEPEYDYWGQGTQVTVSS”: the “polyreactivity (PSR sort gate)” value is listed as “low polyreactivity”.
Take “QVQLVESGGGLVQAGGSLRLSCAASGRTFDVYTMGWYRQAPGKERELVAAINGGGSTYYADSVKGRFTISRDNAKNTVYSQMNSLKPEDTAVYYCAAKFRAGRSSYYWGQGTQVTVSS”: the “polyreactivity (PSR sort gate)” value is “high polyreactivity”.
On to “QVQLVESGGGLVQAGGSLRLSCAASGRTFDYNAMGWYRQAPGKERELVAAISSSGGSTYYADSVKGRFTISRDNAKNTVYLQMNSLKAEDTAVYYCATLYPRKSIYYYWGQGTQVTVSS”, for which the “polyreactivity (PSR sort gate)” value was “high polyreactivity”.
For “QVQLVESGGGLVQAGGSLRLSCAASGRTFDYYVMGWYRQAPGKERELVAAISRRGGSTYYADSVKGRFTISRDNAKNTVYLQMNSLKPEDTAVYYCAAQYYYAREDYWGQGTQVTVSS” the value was “high polyreactivity”.
In the case of “QVQLVESGGGLVQAGGSLRLSCAASGRTFEGNAMGWYRQAPGKERELVAAISTSGGRTYYADSVKGRFTISRDNAKNTVYLQMNSLKPDDTAVYYCAVDHYSSYEYWGQGTQVTVSS”, the “polyreactivity (PSR sort gate)” value is given as “low polyreactivity”.
As for “QVQLVESGGGLVQAGGSLRLSCAASGRTFEGNAMGWYRQAPGKERELVAAITSGGRTNYADSVKGRFTISRDNAKNTVYLQMNSLKPEDTAVYYCAVETRDRSTYFPGQAYDYWGQGTQVTVSS”, the “polyreactivity (PSR sort gate)” value is reported as “low polyreactivity”.
Take “QVQLVESGGGLVQAGGSLRLSCAASGRTFERNAMGWYRPAPGKERELVAAITWSGVSTYYADSVKGRFTISRDNAKNTVYLQMNSLKPEDTAVYYCAADWDWRFHRMNYWGQGTQVTVSS”: the “polyreactivity (PSR sort gate)” value is “low polyreactivity”.
In the case of “QVQLVESGGGLVQAGGSLRLSCAASGRTFEVYTMGWYRQAPGKERELVARIRRGASTNYADSVKGRFTISRDNAKNTVYLQMNSLKPEDTAVYYCNARYTAVAVRWTWPYETQADDYWGQGTQVTVSS”, the “polyreactivity (PSR sort gate)” value is “low polyreactivity”.
Consider “QVQLVESGGGLVQAGGSLRLSCAASGRTFEYYAMGWYRPAPGKERELVAAITWSVGSTYYADSVKGRFTISRDNAKNTVYLQMNSLKPEDTAGYYCAVDVVYTWPFPVEYYYWGQGTQVTVSS”, for which the “polyreactivity (PSR sort gate)” value was “high polyreactivity”.
For the sequence “QVQLVESGGGLVQAGGSLRLSCAASGRTFEYYAMGWYRQAPGKERELVAAITYSGDSTYYADSVKGRFTISRDNAKNTVYLQMNSLKPEDTAVYYCAADWSSLKDDYWGQGTQVTVSS”, the “polyreactivity (PSR sort gate)” value is listed as “low polyreactivity”.
Take “QVQLVESGGGLVQAGGSLRLSCAASGRTFFDNAMGWYRQAPGKEREFVAAISYNGGSTYFADSVKGRFTISRDNAKNTVYLQMNSLKPEDTAVYYCAADPNYGYDYWGQGTQVTVSS”: the “polyreactivity (PSR sort gate)” value was “low polyreactivity”.
In the case of “QVQLVESGGGLVQAGGSLRLSCAASGRTFFENAMGWYRQAPGKEREFVAAISYNGGSTYYADSVKGRFTISRDNAKNTVYLQMNSLKTEDTAVYYCAADPNYGYDYWGQGTQVTVSS”, the “polyreactivity (PSR sort gate)” value is recorded as “low polyreactivity”.
For the sequence “QVQLVESGGGLVQAGGSLRLSCAASGRTFFFYAMGWYRQAPGKERELVASITWSGGTRTYYADSVKGRFTISRDNAKNTVYLQMNSLKPEDTAFYYCAATDSSYWFNRYGGKYYYWGQGTQVTVSS”, the “polyreactivity (PSR sort gate)” value was “high polyreactivity”.
On to “QVQLVESGGGLVQAGGSLRLSCAASGRTFFGNAKGWYRQAPGKERELVASISTRGGSTYYADSVKGRFTISRDNAKNTVYLQMNSLKPEDTAVYYCAKRGRDRRIYGYWGQGTQVTVSS”, for which the “polyreactivity (PSR sort gate)” value is “high polyreactivity”.
As for “QVQLVESGGGLVQAGGSLRLSCAASGRTFFGYTMGWYRHAPGKERELVAVISKRGGRTYYADSVKGRFTISRDNAKNTVYLQMNSLKPEDTAVYYCNRVKDSNVSQAMEYWGQGTQVTVSS”, the “polyreactivity (PSR sort gate)” value was “high polyreactivity”.
For “QVQLVESGGGLVQAGGSLRLSCAASGRTFFINAMGWYRPAPGKERELVAAIRVGAGSTYYADSVKGRVTISRDNAKYTVYLQMNSLKPEDTAVYYCAKRTATSTRKYDYWGQGTQVTVSS” the value was “high polyreactivity”; for “QVQLVESGGGLVQAGGSLRLSCAASGRTFFINTMGWYRQAPGKERELVAAITWSGGSTYYADSVKGRFTISRDNAKNTVYLQMNSLKPEDTAVYYCAAVYVYRPDIIYVEVAYDYWGQGTQVTVSS”, “low polyreactivity”.
Take “QVQLVESGGGLVQAGGSLRLSCAASGRTFFIYAMGWYRQAPGKERELVAAITRGGTNYADSVKGRFTISRDNAKNTVYLQMNSLKPEDTAVYYCYTYTYAGYNYWGQGTQVTVSS”: the “polyreactivity (PSR sort gate)” value was “high polyreactivity”.
On to “QVQLVESGGGLVQAGGSLRLSCAASGRTFFPYGMGWYRQAPGKERELVATISWSGGSTHYADSVKGRFTISRDNAKNTVYLQMNSLKPEDTAVYYCAAGNSLYWYNSGNYWGQGTQVTVSS”, for which the “polyreactivity (PSR sort gate)” value is reported as “low polyreactivity”.
For the sequence “QVQLVESGGGLVQAGGSLRLSCAASGRTFFPYVMGWYRQAPGKERELVAAISNSGTSTYYADSVKGRFTISRDNAKNTVYLQMNSLKPEDTAVYYCAARRYVGLYYWGQGTQVTVSS”, the “polyreactivity (PSR sort gate)” value is reported as “high polyreactivity”.
As for “QVQLVESGGGLVQAGGSLRLSCAASGRTFFRNAMGWYRQAPGKERELVAAISKRGGSTYYADSVKGRFTISRDNAKNTVYLQMNSLKPEDTAVYYCNADPRTVGLDYWGQGTQVTVSS”, the “polyreactivity (PSR sort gate)” value is “high polyreactivity”.
For “QVQLVESGGGLVQAGGSLRLSCAASGRTFFSYVMGWYRPAPGKEREFVAAISRSGGNTYYADSVMGRFTISRDNAKNTVYLQMNSLKPEETAVYYCNKPQRILYDYWGHGTQVTVSS” the value was “high polyreactivity”.
For the sequence “QVQLVESGGGLVQAGGSLRLSCAASGRTFFVNTMGWSRQAPGKERELVAAISDSGGSTYADSVKGRFTISRDNAKNTVNLQKNSLKPEDTAVYYCAARRRYPQRFGFDYWGQGTQVTVSS”, the “polyreactivity (PSR sort gate)” value was “low polyreactivity”.
For the sequence “QVQLVESGGGLVQAGGSLRLSCAASGRTFFVYAMGWYRQAPGKERELVASITLSGGSTYYADSVKGRFTISRDNAKNTVYLQMHSLKPEDTAVYYCAKGWSRDNDREREDEYWGQGTQVTVSS”, the “polyreactivity (PSR sort gate)” value is reported as “low polyreactivity”.
For “QVQLVESGGGLVQAGGSLRLSCAASGRTFFVYAMGWYRQAPGKVRELVAAISNTGGRTYYADSVKGRFTISRDNAKNTVYLQMNSLKPEDTAVYYCAAPYSGPYRSYEYYWGQGTQVTVSS” the value was “low polyreactivity”; for “QVQLVESGGGLVQAGGSLRLSCAASGRTFFWYAMGWYRQAPGKERELVAAITYRGGGTYYADSVKGRFTISRDNAKNTVYLQMNSLKPEDTAVYYCAAEYWVGVYLYDYWGQGTQVTVSS”, “high polyreactivity”.

The values are drawn from the nanobody polyreactivity screen of Harvey et al. (2022).
